{"source": "the DeepSol protein solubility set"}
{"test": "soluble on expression in E. coli; label from the status in PepcDB or PDB records"}
{"sequence": "MSTNEIYNREEVLLLIEKLLGNNIEIPILLMLLLGLRMGEATGLRWSDVDLDNNLINVNQILVYSNGKISFKEPKTPKSKRALSAPKELIEKLKIEKLRQSKLKLQGILENKNNLVCLNTNLNPFLPSSLRKTFHNFTKKNNLKKIRIHDLRHTSATLLLLGGTNMKVVSERLGHTDIKITMNRYSHVLKEMDKEASDNLSELLEHHHHHH", "soluble on expression in E. coli": "not soluble"}
{"sequence": "MIEITFLGGGGGRFVTITQVRATGGFFIKASKNIYVDPGPGALVRMWRYKIDPRKVDVLFISHRHTDHCNDAEVLVEGMTYGVTKKRGTLIGSKSVVHGDENHTPALSKYHLDALEEVHAPNPGDRFKIGEDEMIITPSLHSDPTTIGFRLKTSYGDISYIPDTEYFEELVKWHDGARVIIAAVTRPRDMRIPFHLSSEDAVYLLKSMKQKPEVFIMTHAGMKMHFAGPYKEAQFIQNLTGVKTYVAKEGFKVSIGKEISVKTLRPARFVLEHHHHHH", "soluble on expression in E. coli": "soluble"}
{"sequence": "MGSDKIHHHHHHMNKLEERSQHRKSRFRFLVISTFWRVLLLLKNDAEPLFHLGNIHYAYGHKASAMNYWKEAVSKNREHEKAWHNLVQCAVIQEEWEQAAEGLTILCRNHPTRFEYMSLYTHALKKLGKKEELEEWYLSHINGPHHEWAIEGLGMLYIRTRREIDAFKLLSPFVRKFPNRPVGLKILGISSIRTNQYEAGLTFLEKSLELKEDKEVKSLVDRVKRLKKVRGGNR", "soluble on expression in E. coli": "not soluble"}
{"sequence": "MAHHHHHHMRTPVVGAGVAPLEPAPLEASSAAGEDGGEAGVGDEGTDRERFSKMWMYCLQQMQGHEVGMLMDMMPPDIQELYSDKLSDEYLLDEHDNMDKGVHALRAAQKMVEELTSEQLFHIEEFLAGTDAFNAEANRCHGKAHHPRGDGDNLEEEEEAGGDDDEDLFMHRDEGMGSDEEEWLLEQMIAAGDKTSAAAK", "soluble on expression in E. coli": "not soluble"}
{"sequence": "MSSTKSIPADVIAKLQKFDELITKLEDAVEEVDVGVEKHFERSAHEMALVDTMSMFLMDSLMWAVQATKGGGADKNDDLLIDLARTKRMTADMKEINLRQDAPRINKQAAANFVRNALWEQPEQGESSKKAAK", "soluble on expression in E. coli": "not soluble"}
{"sequence": "MPIRSNPFFNMDSSALLSLLRHTGTSMDSKSSKKSSGSIGGGVLKMFKLIPMLSSGCKMVNLLSRGHRRPLLKDYATTGTIFGFRKGRVFLAIQEDPHCLPIFIIELPMLTSALQKEMASETVRIALESETKTSRKKVLEEYVWGIYCNGRKIGYSIRRKNMSEEEMYVIDALRGVSMGAGVLPCKNQYDQETEGEMTYMRARFDRVIGSKDSEALYMINPEGSGQGTELSIYFLRSH", "soluble on expression in E. coli": "soluble"}
{"sequence": "MGSDKIHHHHHHMPRDTLVSHRQSVDIGGKFSGKTVLTLDVYGTLIDWERGICDALGPILRGHGLSTSEDEMLERYATHESALEAGPYLTYREILEESLLRIAADLGFTPSEYELDIFSHSVGDWPAFADSRAALVALQKRFRLAVITNGDDEFFSLSNKHLKIQFDYVVTAQQARSYKPSLNNFHVALGRIDAPRSQILHVAQSLYHDHVPAQALGLQTVWINRRRGKPGFGAVPKAEAVPDAEFDDMRAFADAMLER", "soluble on expression in E. coli": "not soluble"}
{"sequence": "MGSDKIHHHHHHMLNKRAQILLKTLVERYISEGQPVGSRSLSKFSGLDLSAATIRNVMADLEDMGLVASPHASAGRIPTHQGYRFFVDTLLVVKPLDVIEIHQLQDQLHPDNPSRLINSASQLLAELTRFAGVVVSPKRNSAIFRYIEFMSLSEKRVLLIIVTPEGDVQNRVLFTDRNYSQSELTEAANFINHNYAGCAIDEIRTRLQSELKQLRQDMTSLMTAAIDAGDAAIRENSEAVIVAGERKLLDVQDLSSNMASLKKLFDLFERKTALLQLLEFSRKAEGVQIFIGEECGVVTMDEFSVVTAPYRVDGKMVGTVAVIGPTRMAYERVIPVVDMTARLLSSALSLH", "soluble on expression in E. coli": "not soluble"}
{"sequence": "MSKPKYPFEKRLEVVNHYFTTDDGYRIISARFGVPRTQVRTWVALYEKHGEKGLIPKPKGVSADPELRIKVVKAVIEQHMSLNQAAAHFMLAGSGSVARWLKVYEERGEAGLRALKIGTKRNIAISVDPEKAASALELSKDRRIEDLERQVRFLETRLMYLKKLKALAHPTKK", "soluble on expression in E. coli": "not soluble"}
{"sequence": "MKIKSIEPTPSPNTMKVILTEELPAGKSNNYKPEQAEGAPLVIAEILKIDGVKGVYHVADFLAVERNARYDWKDILPQVRTAFGMESAESAEENRSDQESFGEVKVFVQMFSGIPMQVKLTDGEREERFGLPERFQQAILKLRSEASNVVFERAWKEQGVRFGDFDEIGHDVTEELQAAYSDERLKRLTEAAAQGKGEAKQAVQRKAYKVTLDMLDDEDWKKRYAHLEQMDPKEEDIPVLQKALDDPKVSIRRQAVVYLGMIETPDVLPLLYKALEDKAVSVRRTAGDCLSDIGDPQAIPAMIKSLSDSSKLVRWRAAMFLYEVGDESAIEALRAAEDDPEFEVSLQVKMALERIEHGEEAKGSVWKQMTESRKKGE", "soluble on expression in E. coli": "soluble"}
{"sequence": "MGSDKIHHHHHHMNLRQLYYFKKLAEKEHYTIAAAELSITQPSLSHSIAELERELGVYLFEKQGRNIRLTKYGRFYLTYVEKSLAELEKGEKLLHELTSPSHGNIDLGFIYTMGAHTVPELVQNFTKAENHKDITFSFYQGATKSIIPDLKNEKFDLAICSYVENEPDIEFLPLTKQELVIVVAENHPLAKYDSIDLKDTADYSYIFFSDTSGLRPLIDSLFAEINIQPKIGCYVEEDTAMVGLVSVDYGISIMPKISSLAHYNVKVLSINEPKHERFIYLASLKNHYISPASKAFKDFALRYGEKHFL", "soluble on expression in E. coli": "not soluble"}
{"sequence": "MAHHHHHHMAHGSFDAVRKEMETQEKIIATLQRDNESLLREKKEILSRCKQLEHDFEHLEAKHSLLLSAQQDFAVRSNMHTANDSAKIVNLQAQVEELQTNLETEKRRCALLLQERNDLAQSKSDTPSLVGSAEITNVAVVREQQGRSEDIVAKLRESQRIHSIQKSTIDALHSEVTRLESERKVSHSRESNLLREVDSLRTQVRDLESALQQKKGGIRELMSSCQAGSANAQRLKKQETRIRLLEKALLEKDEFTKRAMEELRAEAKKVCERYQSTVAELRQRLEVPKDDPELQKRISTLERENLDLRRALGGASVSLAVESAQPVQKLATEPKHHTDVTDKADKPGGQALKAPGSHELEITHLHSVIERLRAEICEHKQRNITLQSKLDSIHAEWDARLAEMKTNFALQIQTLRSAHNEELSRLEASHQTQLLEISKCSKADRGDSLASRLSRIVEEKGYDASLIAIGERLCFLEKRYCQKEEEKTHELLEMKRVAELEMKIQKEKTDLLLEQKNTQIKRFQVQLDELLAALSILQATS", "soluble on expression in E. coli": "not soluble"}
{"sequence": "MNEKIEQAIREMGFKNFTEVQSKTIPLMLQGKNVVVRAKTGSGKTAAYAIPILELGMKSLVVTPTRELTRQVASHIRDIGRYMDTKVAEVYGGMPYKAQINRVRNADIVVATPGRLLDLWSKGVIDLSSFEIVIIDEADLMFEMGFIDDIKIILAQTSNRKITGLFSATIPEEIRKVVKDFITNYEEIEACIGLANVEHKFVHVKDDWRSKVQALRENKDKGVIVFVRTRNRVAKLVRLFDNAIELRGDLPQSVRNRNIDAFREGEYDMLITTDVASRGLDIPLVEKVINFDAPQDLRTYIHRIGRTGRMGRKGEAITFILNEYWLEKEVKKVSQKA", "soluble on expression in E. coli": "soluble"}
{"sequence": "MSLENLQTNFSLVQGSTKKLNGMGDDGSPPAKKMITDIHVNGKTINKVPTVKKEHLDDYGEAPVETDGEHVKRTCTSVPETLHLNPSLKHTLAQFHLSSQSSLGGPAAFSARHSQESMSPTVFLPLPSPQVLPGPLLIPSDSSTELTQTVLEGESISCFQVGGEKRLCLPQVLNSVLREFTLQQINTVCDELYIYCSRCTSDQLHILKVLGILPFNAPSCGLITLTDAQRLCNALLRPRTFPQNGSVLPAKSSLAQLKETGSAFEVEHECLGKCQGLFAPQFYVQPDAPCIQCLECCGMFAPQTFVMHSHRSPDKRTCHWGFESAKWHCYLHVNQKYLGTPEEKKLKIILEEMKEKFSMREGHHHHHH", "soluble on expression in E. coli": "not soluble"}
{"sequence": "AKLLPKLQKQNLSDSAQQIAQERGLGNSSQRKVYLPIIRAYRVGPELIDWTDGKNLRELGIYRQTGCYIERIRRNGILAHPDGDAILQEGDEIALVGFPDSHARLDPSFRNGKEVFDRNLLDLRIVEEEIVVKSDAIAGKRLSDLNLSEFGCFLNRVVRAQIEMPMDLDIVLAKGDVLQVSGEKSRVHGLAEKIGFISIHSQMAD", "soluble on expression in E. coli": "not soluble"}
{"sequence": "MSLFYANMKEFELIKLVERLFGDEDVITPAGKHDAAYVKIGNRLIVLTCDTVNEKSDFPPYMLPEEMGWMAIAVTLSDVAACGARPLYFLSSISLKSIEFFEDILLGIKRCADRFGVKVVGGDIDFSEITTIAGFAIGEARRHITRRGAKVGEGVFITDLPGKAQLCLEMLERGAKREELPYAEKLYTPVPRIEEGMRIARYASAMTDVSDSLAVSLHQISQSSNVKIVLDNIVLSHLSPAENALELFLYGGGDFELVYTAKSSDDGIRIGRVERGKGVFAEIDGKTFEVEFRGYSHFEGHHHHHH", "soluble on expression in E. coli": "soluble"}
{"sequence": "MSIWKEAKDASGRIYYYNTLTKKSTWEKPKELISQEELLLRENGWKAAKTADGKVYYYNPTTRETSWTIPAFEKK", "soluble on expression in E. coli": "soluble"}
{"sequence": "MGSDKIHHHHHHMQQSQTIYLMGTVIDVFVDHEESEKILEEVHQRLITYEQRFSANDSTSELMAVNQQAGQKPVSVHPELYQLIALGKKHSCDPASHLNVTIGPLVQTWRIGFKDARVPSEEEIKACLKKINPEKIHLNPLKQTVFLEEEGMKLDLGALAKGYIADLLIAYLKEVHVTSALINLGGNIVTLGPSTHQNKKWRIGIRNPQESRETISLLVEVANQSVVTSGIYERSLTEAGRVYHHLLDPTTGYPLETEMASLTIISDASVDGEIWTTRLFGYPIPEALEILNQLDGIEGVIITQDQQILYSSGLADTLHIIHS", "soluble on expression in E. coli": "not soluble"}
{"sequence": "MSLQSDMLAQSDMLACREMIKEGSHTFHAASKVLPRRISDPAIALYAFCRVADDAVDLGLDRAAAVELLKDRLDRACRGVPRAYPSDRAFADVVARFSIPPAIPEALIEGLEWDAQGRRFETLSDLYSYCARVAGTVGVMMTLVMGQRKPDIVARACDLGCAMQLTNIARDIGEDARNGRIYMPLSWMREAGLDPETWLANPKFTPEIASIVKRLIDTADALYDRATLGIANLPRSCRPGIFAARALYAEIGREVERSGLDSVSSRAVVSTGRKLAVLARLLAFQETEWAPAKYLPAKFGDMEETKFLVDAVIAHPVREGHHHHHH", "soluble on expression in E. coli": "soluble"}
{"sequence": "MGSDKIHHHHHHMITTEAWVLYAGPEQTKKHAPVPGELRRETFQFAGLEDDEALVEPLYGSWEANLDHALSRNPVDICRQRGEEKIVLGNGALVRVVDRGRGAKHPEIGEICMVMPFGKRDQYGFAELVYAYDAPGTIGVMARRTKIRADNLVPVPKGSRHSLLQWATYGRYFTAWDNWKVASKCWRAQLPDVDPADYLVFGWGGGTTLAELQLAKREGFRVAMTASGDKRLADIEKLGITPVDRRRFPHLAYDEERYRSDPEYQAHYRASESAFAEIIGELSGGRGVAIFLDNLGGALYRATMRVIGRTGIVATVGWKTGMRLWNLRATECINRRLHIHTHAWRYDDSEAIRDFQESSDWVGPEPTEIYGFDDVPALASDYVNGKIKTYFPLYQVNPV", "soluble on expression in E. coli": "not soluble"}
{"sequence": "MGSDKIHHHHHHMKFFKSLLIAPAALGLMAPVAVNADTAFSPTTKLKSSVNFTVGSNADSADGDELHSSYEMKWKATTSFTGEDKLVGKFEIGSGKTLAGGIDPQSSKGGGKTPTLTDLYYQFPLAEDLTISIGPKMDGDQGLAGTTSVYGEPVLLAADGYYALAGEGGTGATIAYAGDNGWNASLNMTAADGDDASKGIFGDDTEDYVTAQLGFDGDGFGGTFTYSDSSDTYTAYGIGAYFQPESIPVTVSAYFDSMDPEKGEEDENWVVGVEADAGPGTLGVGVGTQKGTDEKLTYEAWYDYKIADGVKITPMIWTSEDAGVGGEDLSGAALNVKYKF", "soluble on expression in E. coli": "not soluble"}
{"sequence": "MGSDKIHHHHHHMDSLDQCIVNACKNSWDKSYLAGTPNKDNCSGFVQSVAAELGVPMPRGNANAMVDGLEQSWTKLASGAEAAQKAAQGFLVIAGLKGRTYGHVAVVISGPLYRQKYPMCWCGSIAGAVGQSQGLKSVGQVWNRTDRDRLNYYVYSLASCSLPRAS", "soluble on expression in E. coli": "not soluble"}
